Reference: US20070254831A1 (published 2007)
Read-outs that look alike come from different tables or passages of the source. Bridge positions count the residues as written; N and C are the ends. Square brackets hold non-standard residues; d marks the D form. Ends that are not written are not given here. Pen = CC(C)(S)[C@H](N)C(=O)O; Dab = NCC[C@H](N)C(=O)O

Columns and labels:
soluble human FcRn [1] = biological target: T1, soluble human FcRn (human, UniProt P55899 24-297; P61769 21-119, biotinylated (Sulfo-NHS-LC-Biotin) in the ELISA; amine-coupled to CM5 chip in SPR); test: ELISA, competitor human IgG
T1 construct: also called shFcRn; biotinylated shFcRn
Procedure: (§1) The wells were coated with 100 μl/well of 1 μg/ml biotinylated-shFcRn in Buffer A. The plate was sealed and incubated at 37° C. for 2 hours. Afterwards, the plate washed with 200 μl/well of Buffer B (Buffer B: 100 mM MES pH 6, 150 mM NaCl, 0.5% BSA IgG-free (Jackson ImmunoResearch, West Grove, Pa.), 0.05% Tween-20). […] To allow for mixing, the plate was rocked for 2 minutes, sealed and incubated at 37° C. for 2 hours. […] The plate was covered, incubated for 30 minutes at room temperature and washed 4 times with 200 μl/well of ice-cold buffer B. SureBlue TMB substrate solution (100 μl/well, KPL, Gaithersburg, Md.) was added and the plate was allowed to incubate at room temperature until color developed, which took 5 to 10 minutes. Once color developed, 100 μl/well of TMB stop solution (KPL, Gaithersburg, Md.) was added and the absorbance was measured at 450 nm. The data was plotted as absorbance vs. peptide concentration to derive the inhibitory concentration 50% (IC₅₀) values.

soluble human FcRn [2] = biological target: T1, soluble human FcRn; test: SPR, pH 6
Procedure: (§2) The following steps were performed to cross-link soluble human or cynomolgus FcRn to the dextran surface of a CM5 sensor chip (Biacore AB, Uppsala, Sweden) by an amine coupling reaction involving 1-ethyl-(3-dimethylaminopropyl)-carbodiimide hydrochloride (EDC) (Biacore AB, Uppsala, Sweden) and N-hydroxysuccinimide (NHS) (Biacore AB, Uppsala, Sweden) as recommended by Biacore (BIAapplications Handbook, version AB, section 4.2, Biacore AB, Uppsala, Sweden). […] Residual sites on the FcRn flow cell were blocked with 1 M ethanolamine hydrochloride pH 8.5 (Biacore AB, Uppsala, Sweden). A control flow cell was blocked with ethanolamine for reference subtraction. For analysis of the monomeric peptides, FcRn was coated to a final density of 4000-5000 response units (RU). For analysis of the peptide dimers, FcRn was coated to a density of 2000-2500 RU. All SPR measurements were performed using a BIACORE 3000 Instrument (Biacore AB Uppsala, Sweden). For measurements done at either pH 6 or pH 7.4, experiments were performed in 50 mM phosphate, 100 mM sodium chloride, 0.01% surfactant P20 (Biacore AB, Uppsala, Sweden).
(§3) Ten, 2-fold dilutions of the peptide were injected over the FcRn-CM5 chip at a rate of 20 μl/min for 2 min. The peptide was dissociated from the chip for 2.5 minutes with buffer. Any remaining peptide was removed from the chip with a 30 second injection of HBS-P buffer (Biacore AB, Uppsala, Sweden) at a rate of 30 μl/min. Sensorgrams were generated and analyzed using BiaEval software version 3.1 (Biacore AB, Uppsala, Sweden). The equilibrium RU observed for each injection was plotted against concentration. The equilibrium KD values were derived by analysis of the plots using the steady state affinity model included in the BiaEval software.

soluble human FcRn [3] = biological target: T1, soluble human FcRn; test: ELISA, competitor human IgG; remark: listed apart in the source
Procedure: as §1

soluble human FcRn [4] = biological target: T1, soluble human FcRn; test: ELISA, competitor human IgG; remark: listed apart in the source
Procedure: as §1

soluble human FcRn [5] = biological target: T1, soluble human FcRn; test: SPR, pH 6; remark: listed apart in the source
Procedure: as §2, §3

| Binder | IC50 (soluble human FcRn [4]) [µM] | Kd (soluble human FcRn [5]) [µM] | also measured |
| --- | --- | --- | --- |
| RFXTGXFGGLYPC (Pen at 3; Thz(Me) (N-methyl-thiazolium) at 6; Sar at 9; NMeLeu at 10; disulfide; -CONH2) [Peptide No. 269] |  |  | IC50 (soluble human FcRn [1]): 2.4 µM |
| RFXTGXFGGLYPC (not fully specified; Pen at 3; Thz at 6; Sar at 9; NMeLeu at 10; disulfide; C-terminal amide) [Peptide No. 248] |  |  | IC50 (soluble human FcRn [1]): 1.6 µM; Kd (soluble human FcRn [2]): 0.84 µM |
| QRFCTG[Dab]FGGLYPCNGP-NH2 (disulfide 4-14; N-terminus assumed; SMILES CC(C)C[C@@H]1NC(=O)CNC(=O)CNC(=O)[C@H](Cc2ccccc2)NC(=O)[C@H](CCN)NC(=O)CNC(=O)[C@H]([C@@H](C)O)NC(=O)[C@@H](NC(=O)[C@H](Cc2ccccc2)NC(=O)[C@H](CCCNC(=N)N)NC(=O)[C@@H](N)CCC(N)=O)CSSC[C@@H](C(=O)N[C@@H](CC(N)=O)C(=O)NCC(=O)N2CCC[C@H]2C(N)=O)NC(=O)[C@@H]2CCCN2C(=O)[C@H](Cc2ccc(O)cc2)NC1=O) [Peptide No. 36] |  |  | IC50 (soluble human FcRn [1]): > 125 µM |
| RFXTGXFGGLYPC (Pen at 3; triazolylAla at 6; Sar at 9; NMeLeu at 10; disulfide; C-terminal amide) [Peptide No. 271] |  |  | IC50 (soluble human FcRn [1]): 5.7 µM |
| RFXTGXFGGLYPC (Pen at 3; PropargylGly at 6; Sar at 9; NMeLeu at 10; disulfide; C-terminal amide) [Peptide No. 261] |  |  | IC50 (soluble human FcRn [1]): 160 µM |
| RFXTGXFGGLYPC (Pen at 3; Orn at 6; Sar at 9; NMeLeu at 10; disulfide; C-terminal amide) [Peptide No. 254] |  |  | Kd (soluble human FcRn [2]): 1.3 µM |
| RFXTGXFGGLYPC (Pen at 3; 4aminoPhe at 6; Sar at 9; NMeLeu at 10; disulfide; C-terminal amide) [Peptide No. 258] |  |  | IC50 (soluble human FcRn [1]): 4.6 µM |
| QRFXTGXFGGLYPCNGP (Pen at 4; Thz at 7; disulfide; C-terminal amide) [Peptide No. 91] |  |  | IC50 (soluble human FcRn [1]): 44 µM |
| RFXTGXFGGLYPC (Pen at 3; 2-PyrrolidinylAla at 6; Sar at 9; NMeLeu at 10; disulfide; C-terminal amide) [Peptide No. 262] |  |  | Kd (soluble human FcRn [2]): 8.4 µM |
| QRFVTGHFG[dP]LYPANGP-NH2 (N-terminus assumed; SMILES CC(C)C[C@H](NC(=O)[C@H]1CCCN1C(=O)CNC(=O)[C@H](Cc1ccccc1)NC(=O)[C@H](Cc1c[nH]cn1)NC(=O)CNC(=O)[C@@H](NC(=O)[C@@H](NC(=O)[C@H](Cc1ccccc1)NC(=O)[C@H](CCCNC(=N)N)NC(=O)[C@@H](N)CCC(N)=O)C(C)C)[C@@H](C)O)C(=O)N[C@@H](Cc1ccc(O)cc1)C(=O)N1CCC[C@H]1C(=O)N[C@@H](C)C(=O)N[C@@H](CC(N)=O)C(=O)NCC(=O)N1CCC[C@H]1C(N)=O) [Peptide No. 157] |  |  | IC50 (soluble human FcRn [3]): 195 µM |
| QRFVTGHFG[dP]LYPLNGP-NH2 (N-terminus assumed; SMILES CC(C)C[C@H](NC(=O)[C@H]1CCCN1C(=O)CNC(=O)[C@H](Cc1ccccc1)NC(=O)[C@H](Cc1c[nH]cn1)NC(=O)CNC(=O)[C@@H](NC(=O)[C@@H](NC(=O)[C@H](Cc1ccccc1)NC(=O)[C@H](CCCNC(=N)N)NC(=O)[C@@H](N)CCC(N)=O)C(C)C)[C@@H](C)O)C(=O)N[C@@H](Cc1ccc(O)cc1)C(=O)N1CCC[C@H]1C(=O)N[C@@H](CC(C)C)C(=O)N[C@@H](CC(N)=O)C(=O)NCC(=O)N1CCC[C@H]1C(N)=O) [Peptide No. 168] |  |  | IC50 (soluble human FcRn [3]): 100 µM |
| QRFVTGHFG[dP]IYPANGP-NH2 (N-terminus assumed; SMILES CC[C@H](C)[C@H](NC(=O)[C@H]1CCCN1C(=O)CNC(=O)[C@H](Cc1ccccc1)NC(=O)[C@H](Cc1c[nH]cn1)NC(=O)CNC(=O)[C@@H](NC(=O)[C@@H](NC(=O)[C@H](Cc1ccccc1)NC(=O)[C@H](CCCNC(=N)N)NC(=O)[C@@H](N)CCC(N)=O)C(C)C)[C@@H](C)O)C(=O)N[C@@H](Cc1ccc(O)cc1)C(=O)N1CCC[C@H]1C(=O)N[C@@H](C)C(=O)N[C@@H](CC(N)=O)C(=O)NCC(=O)N1CCC[C@H]1C(N)=O) [Peptide No. 174] |  |  | IC50 (soluble human FcRn [3]): 94 µM |
| QRFVTGHFG[dP]FYPANGP-NH2 (N-terminus assumed; SMILES CC(C)[C@H](NC(=O)[C@H](Cc1ccccc1)NC(=O)[C@H](CCCNC(=N)N)NC(=O)[C@@H](N)CCC(N)=O)C(=O)N[C@H](C(=O)NCC(=O)N[C@@H](Cc1c[nH]cn1)C(=O)N[C@@H](Cc1ccccc1)C(=O)NCC(=O)N1CCC[C@@H]1C(=O)N[C@@H](Cc1ccccc1)C(=O)N[C@@H](Cc1ccc(O)cc1)C(=O)N1CCC[C@H]1C(=O)N[C@@H](C)C(=O)N[C@@H](CC(N)=O)C(=O)NCC(=O)N1CCC[C@H]1C(N)=O)[C@@H](C)O) [Peptide No. 175] |  |  | IC50 (soluble human FcRn [3]): 200 µM |
| QRFXTGHFXGLYPCNGP (Pen at 4; Aib at 9; disulfide; C-terminal amide) [Peptide No. 54] | 17 | 5.2 |  |
| RFXTGAFGGLYPC (Pen at 3; Sar at 9; NMeLeu at 10; disulfide; C-terminal amide) [Peptide No. 266] |  |  | IC50 (soluble human FcRn [1]): > 100 µM; Kd (soluble human FcRn [2]): 9.9 µM |
| QRFXTGXFGGLYPCNGP (Pen at 4; (1Me)His at 7; disulfide; C-terminal amide) [Peptide No. 138] |  |  | IC50 (soluble human FcRn [1]): 3.4 µM; Kd (soluble human FcRn [2]): 0.74 µM |
| QRFXTGHFGYLYPCNGP (Pen at 4; D-Tyr at 10; disulfide; C-terminal amide) [Peptide No. 45] |  | 1.5 |  |
| QRFXTGHFFGLYPCNGP (Pen at 4; D-Phe at 9; disulfide; C-terminal amide) [Peptide No. 52] | 2.8 | 0.51 |  |
| QRFXTGHFGALYPCNGP (Pen at 4; D-Ala at 10; disulfide; C-terminal amide) [Peptide No. 74] | 2 | 0.48 |  |
| QRFXTGHFAALYPCNGP (Pen at 4; D-Ala at 9 and 10; disulfide; C-terminal amide) [Peptide No. 148] |  | 0.45 |  |
| QRFXTGHFRGLYPCNGP (Pen at 4; D-Arg at 9; disulfide; C-terminal amide) [Peptide No. 49] | 4.1 |  |  |
| QRF[Pen]TGHF[dF][dA]LYPCNGP-NH2 (disulfide 4-14; N-terminus assumed; SMILES CC(C)C[C@@H]1NC(=O)[C@@H](C)NC(=O)[C@@H](Cc2ccccc2)NC(=O)[C@H](Cc2ccccc2)NC(=O)[C@H](Cc2c[nH]cn2)NC(=O)CNC(=O)[C@H]([C@@H](C)O)NC(=O)[C@@H](NC(=O)[C@H](Cc2ccccc2)NC(=O)[C@H](CCCNC(=N)N)NC(=O)[C@@H](N)CCC(N)=O)C(C)(C)SSC[C@@H](C(=O)N[C@@H](CC(N)=O)C(=O)NCC(=O)N2CCC[C@H]2C(N)=O)NC(=O)[C@@H]2CCCN2C(=O)[C@H](Cc2ccc(O)cc2)NC1=O) [Peptide No. 151] | 4.3 |  |  |
| QRFXTGHFHGLYPCNGP (Pen at 4; D-His at 9; disulfide; C-terminal amide) [Peptide No. 50] | 3.6 |  |  |
| QRFXTGHFPPLYPCNGP (Pen at 4; D-Pro at 9 and 10; disulfide; C-terminal amide) [Peptide No. 152] | 21 |  |  |
| QRFXTGHFFGLYPCNGP (Pen at 4; D-Phe at 9; NMeLeu at 11; disulfide; C-terminal amide) [Peptide No. 153] | 1.3 | 0.24 |  |
| QRFXTGHFPGLYPCNGP (Pen at 4; D-Pro at 9; disulfide; C-terminal amide) [Peptide No. 48] | 5 |  |  |
| QRFXTGHFAGLYPCNGP (Pen at 4; D-Ala at 9; disulfide; C-terminal amide) [Peptide No. 75] |  | 0.49 |  |
| QRFXTGHFFPLYPCNGP (Pen at 4; D-Phe at 9; D-Pro at 10; disulfide; C-terminal amide) [Peptide No. 150] | 5.9 | 0.72 |  |
| QRF[Pen]TGHF[dA][dP]LYPCNGP-NH2 (disulfide 4-14; N-terminus assumed; SMILES CC(C)C[C@@H]1NC(=O)[C@H]2CCCN2C(=O)[C@@H](C)NC(=O)[C@H](Cc2ccccc2)NC(=O)[C@H](Cc2c[nH]cn2)NC(=O)CNC(=O)[C@H]([C@@H](C)O)NC(=O)[C@@H](NC(=O)[C@H](Cc2ccccc2)NC(=O)[C@H](CCCNC(=N)N)NC(=O)[C@@H](N)CCC(N)=O)C(C)(C)SSC[C@@H](C(=O)N[C@@H](CC(N)=O)C(=O)NCC(=O)N2CCC[C@H]2C(N)=O)NC(=O)[C@@H]2CCCN2C(=O)[C@H](Cc2ccc(O)cc2)NC1=O) [Peptide No. 149] | 3.7 |  |  |

Further lines, with some results ahead:

| IC50 (soluble human FcRn [4]) [µM] | Kd (soluble human FcRn [5]) [µM] | Binder | also measured |
| --- | --- | --- | --- |
| 39 | 18.3 | QRF[Pen]TGHF[dF]GPYPCNGP-NH2 (disulfide 4-14; N-terminus assumed; SMILES C[C@@H](O)[C@@H]1NC(=O)[C@@H](NC(=O)[C@H](Cc2ccccc2)NC(=O)[C@H](CCCNC(=N)N)NC(=O)[C@@H](N)CCC(N)=O)C(C)(C)SSC[C@@H](C(=O)N[C@@H](CC(N)=O)C(=O)NCC(=O)N2CCC[C@H]2C(N)=O)NC(=O)[C@@H]2CCCN2C(=O)[C@H](Cc2ccc(O)cc2)NC(=O)[C@@H]2CCCN2C(=O)CNC(=O)[C@@H](Cc2ccccc2)NC(=O)[C@H](Cc2ccccc2)NC(=O)[C@H](Cc2c[nH]cn2)NC(=O)CNC1=O) [Peptide No. 155] |  |
|  | 0.19 | QRFXTGHFAGLYPCNGP (Pen at 4; D-Ala at 9; Sar at 10; disulfide; C-terminal amide) [Peptide No. 189] |  |
|  | 3.8 | QRFXTGHFFPLYPCNGP (Pen at 4; D-Phe at 9 (L-Pro at 10); disulfide; C-terminal amide) [Peptide No. 203] |  |
